Data from article PMC6424611 (Journal of molecular biology, 2019).
Like-named read-outs stand apart in the source and are kept apart here. Where no end group is shown, it is not given here. The star is where a group is joined. Biotin = O=C1N[C@H]2[C@H](CS[C@H]2CCCCC(=O)*)N1; TTDS = NCCCOCCOCCOCCCNC(=O)CCC(=O)*

Columns and labels:
[1] = target: T1, MBP-fused PDZ domain 1 of PDZRN3 (human, UniProt Q9UPQ7 249-339); experiment: fluorescence polarisation
T1 sequence (looked up): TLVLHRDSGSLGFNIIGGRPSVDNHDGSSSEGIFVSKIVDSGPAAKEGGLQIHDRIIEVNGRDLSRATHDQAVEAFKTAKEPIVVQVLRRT

[2] = target: T2, MBP-fused PDZ domain 1 of NHERF3 (human, UniProt Q5T2W1 9-90); experiment: fluorescence polarisation
T2 sequence (looked up): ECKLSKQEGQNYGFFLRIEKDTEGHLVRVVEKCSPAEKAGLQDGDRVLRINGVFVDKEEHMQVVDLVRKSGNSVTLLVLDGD

[3] = target: T3, MBP-fused PDZ domain of ARHGEF12 (human, UniProt Q9NZN5 72-151); experiment: fluorescence polarisation
T3 sequence (looked up): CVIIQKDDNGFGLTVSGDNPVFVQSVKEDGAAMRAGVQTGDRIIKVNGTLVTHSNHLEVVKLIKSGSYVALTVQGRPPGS

[4] = target: T4, MBP-fused PDZ domain of MAST2 (human, UniProt Q6P0Q8 1104-1192); experiment: fluorescence polarisation
T4 sequence (looked up): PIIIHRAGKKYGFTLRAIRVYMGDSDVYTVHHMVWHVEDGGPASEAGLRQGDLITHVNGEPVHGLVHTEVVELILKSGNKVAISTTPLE

[5] = target: T5, MBP-fused PDZ domain of SNTB1 (human, UniProt Q13884 112-195); experiment: fluorescence polarisation
T5 sequence (looked up): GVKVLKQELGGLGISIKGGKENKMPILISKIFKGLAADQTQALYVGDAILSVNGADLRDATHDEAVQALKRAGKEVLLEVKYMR

[6] = target: T6, MBP-fused PDZ domain of HTRA1 (human, UniProt Q92743 365-467); experiment: fluorescence polarisation
[7] = target: T7, MBP-fused PDZ domain 1 of PDZRN4 (human, UniProt Q6ZMN7 224-314); experiment: fluorescence polarisation
T7 sequence (looked up): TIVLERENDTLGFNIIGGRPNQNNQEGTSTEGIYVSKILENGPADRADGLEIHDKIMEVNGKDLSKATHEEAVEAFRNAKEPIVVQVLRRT

[8] = target: T8, MBP-fused PDZ domain 3 of PDZD7 (human, UniProt Q9H5P4 862-934); experiment: fluorescence polarisation
T8 sequence (looked up): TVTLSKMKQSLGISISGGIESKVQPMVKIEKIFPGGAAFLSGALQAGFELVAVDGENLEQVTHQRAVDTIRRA

[9] = target: T9, MBP-fused PDZ domain of SNTG2 (human, UniProt Q9NY99 73-156); experiment: fluorescence polarisation
T9 sequence (looked up): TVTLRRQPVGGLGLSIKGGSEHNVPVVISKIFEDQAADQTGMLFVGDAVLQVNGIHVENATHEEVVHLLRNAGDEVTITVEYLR

[10] = target: T10, MBP-fused PDZ domain 1 of PARD3B (human, UniProt Q8TEW8 201-289); experiment: fluorescence polarisation
T10 sequence (looked up): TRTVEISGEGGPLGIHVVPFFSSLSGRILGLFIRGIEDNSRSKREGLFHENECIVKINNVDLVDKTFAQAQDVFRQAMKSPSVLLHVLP

[11] = target: T11, MBP-fused PDZ domain of SNX27 (human, UniProt Q96L92 43-136); experiment: fluorescence polarisation
[12] = target: T12, MBP-fused PDZ domain of SNTA1 (human, UniProt Q13424 87-170); experiment: fluorescence polarisation
T12 sequence (looked up): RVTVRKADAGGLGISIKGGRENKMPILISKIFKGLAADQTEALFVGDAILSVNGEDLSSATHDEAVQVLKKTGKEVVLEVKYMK

[13] = target: T13, MBP-fused PDZ domain of MAST1 (human, UniProt Q9Y2H9 967-1055); experiment: fluorescence polarisation
T13 sequence (looked up): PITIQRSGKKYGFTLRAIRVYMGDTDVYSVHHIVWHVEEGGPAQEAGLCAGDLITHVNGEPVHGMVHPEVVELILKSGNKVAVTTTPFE

[14] = target: T14, MBP-fused PDZ domain 2 of MAGI2 (human, UniProt Q86UL8 426-510); experiment: fluorescence polarisation
[15] = target: T15, MBP-fused PDZ domain of SYNJ2BP (human, UniProt P57105 13-100); experiment: fluorescence polarisation
T15 sequence (looked up): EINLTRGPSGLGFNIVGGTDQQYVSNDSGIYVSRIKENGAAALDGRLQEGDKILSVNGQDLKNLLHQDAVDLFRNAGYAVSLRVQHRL

[16] = target: T16, MBP-fused PDZ domain 2 of GRID2IP (human, UniProt A4D2P6 279-356); experiment: fluorescence polarisation
[17] = target: MBP-fused second PDZ domain of MAGI1 (human, UniProt Q96QZ7 472-554); experiment: SPR
[18] = target: T1, MBP-fused PDZ domain 1 of PDZRN3; experiment: SPR
[19] = target: T2, MBP-fused PDZ domain 1 of NHERF3; experiment: SPR
[20] = target: T3, MBP-fused PDZ domain of ARHGEF12; experiment: SPR
[21] = target: T4, MBP-fused PDZ domain of MAST2; experiment: SPR
[22] = target: T5, MBP-fused PDZ domain of SNTB1; experiment: SPR
[23] = target: T7, MBP-fused PDZ domain 1 of PDZRN4; experiment: SPR
[24] = target: T12, MBP-fused PDZ domain of SNTA1; experiment: SPR
[25] = target: T14, MBP-fused PDZ domain 2 of MAGI2; experiment: SPR
[26] = target: T15, MBP-fused PDZ domain of SYNJ2BP; experiment: SPR
[27] = target: T17, biotinylated RSK1 725-735 peptide, unphosphorylated (human, UniProt Q15418 725-735); experiment: holdup assay
T17 peptide (looked up): {Biotin-TTDS}-RRVRKLPSTTL

[28] = target: T4, MBP-fused PDZ domain of MAST2; experiment: fluorescence polarisation; remark: listed apart in the source
[29] = target: T5, MBP-fused PDZ domain of SNTB1; experiment: fluorescence polarisation; remark: listed apart in the source
[30] = target: T6, MBP-fused PDZ domain of HTRA1; experiment: fluorescence polarisation; remark: listed apart in the source
[31] = target: T8, MBP-fused PDZ domain 3 of PDZD7; experiment: fluorescence polarisation; remark: listed apart in the source
[32] = target: T9, MBP-fused PDZ domain of SNTG2; experiment: fluorescence polarisation; remark: listed apart in the source
[33] = target: T10, MBP-fused PDZ domain 1 of PARD3B; experiment: fluorescence polarisation; remark: listed apart in the source
[34] = target: T11, MBP-fused PDZ domain of SNX27; experiment: fluorescence polarisation; remark: listed apart in the source
[35] = target: T12, MBP-fused PDZ domain of SNTA1; experiment: fluorescence polarisation; remark: listed apart in the source
[36] = target: T13, MBP-fused PDZ domain of MAST1; experiment: fluorescence polarisation; remark: listed apart in the source
[37] = target: T16, MBP-fused PDZ domain 2 of GRID2IP; experiment: fluorescence polarisation; remark: listed apart in the source

T16 sequence (A4D2P6 279-356): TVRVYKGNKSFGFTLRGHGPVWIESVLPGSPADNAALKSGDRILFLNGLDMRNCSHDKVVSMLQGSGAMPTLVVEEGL
T6 sequence (Q92743 365-467): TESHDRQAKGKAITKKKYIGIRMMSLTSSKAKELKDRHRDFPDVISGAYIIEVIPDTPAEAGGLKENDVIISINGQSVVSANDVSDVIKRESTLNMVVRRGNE
T14 sequence (Q86UL8 426-510): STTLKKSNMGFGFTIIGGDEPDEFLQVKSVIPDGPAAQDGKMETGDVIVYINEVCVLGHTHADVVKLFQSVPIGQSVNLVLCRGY
Chain of MBP-fused second PDZ domain of MAGI1 (Q96QZ7 472-554): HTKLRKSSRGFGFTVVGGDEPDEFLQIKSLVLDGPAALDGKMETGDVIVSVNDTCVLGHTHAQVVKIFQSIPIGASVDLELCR

B1: fluorescein labeled RSK1 729-735 peptide, phosphorylated (peptide, UniProt Q15418 729-735, looked up)
peptide: KLPSTTL
modifications: phosphorylated; fluorescein labeled
Kd [1]: 17.5 ± 1.4 µM | Kd [2]: 220 ± 30 µM | Kd [3]: 29 ± 8 µM | Kd [4]: 13 ± 2 µM | Kd [5]: 1.5 ± 0.1 µM | Kd [6]: 11.3 ± 0.4 µM | Kd [7]: 14 ± 2 µM | Kd [8]: 1.8 ± 0.1 µM | Kd [9]: 24 ± 2 µM | Kd [10]: 6.8 ± 0.5 µM | Kd [11]: 4.4 ± 0.4 µM | Kd [12]: 4.9 ± 0.4 µM | Kd [13]: 34 ± 8 µM | Kd [14]: 430 ± 45 µM | Kd [15]: 16 ± 1 µM | Kd [16]: 47 ± 15 µM

B2: biotinylated HPV16 E6 peptide (peptide)
chain: RSSRTRRETQL
modifications: not fully specified (N-terminus); also: biotinylated, position not given here
Kd [17]: 3.4 ± 0.8 µM | Kd [18]: 8.6 ± 1.6 µM | Kd [19]: 23 ± 3 µM | Kd [20]: 10.9 ± 1.4 µM | Kd [21]: 2.5 ± 0.2 µM | Kd [22]: 27 ± 4 µM | Kd [23]: 6 ± 1.5 µM | Kd [24]: 101 ± 40 µM | Kd [25]: 2.9 ± 0.14 µM | Kd [26]: 33 ± 4 µM

B3: first PDZ domain of Scribble (domain or fragment)
chain: not shown
Kd [27]: 60 to 70 µM

B4: RSK1 683-735 peptide, unphosphorylated (peptide, UniProt Q15418 683-735, looked up)
peptide: QSQLSHQDLQLVKGAMAATYSALNSSKPTPQLKPIESSILAQRRVRKLPSTTL
Kd [28]: 19 ± 7 µM | Kd [29]: 37 ± 6 µM | Kd [30]: 19 ± 3 µM | Kd [31]: 4 ± 1 µM | Kd [32]: 24 ± 12 µM | Kd [33]: 45 ± 7 µM | Kd [34]: 185 ± 25 µM | Kd [35]: 81 ± 17 µM | Kd [36]: 5 ± 1 µM | Kd [37]: 1.7 ± 0.3 µM

B5: fluorescein labeled RSK1 729-735 peptide, unphosphorylated (peptide, UniProt Q15418 729-735, looked up)
peptide: KLPSTTL
modifications: also: fluorescein labeled, site not given here
Kd [1]: 90 ± 25 µM | Kd [2]: 80 ± 20 µM | Kd [3]: 7.5 ± 0.8 µM | Kd [4]: 7.9 ± 0.6 µM | Kd [5]: 18 ± 2 µM | Kd [6]: 30 ± 2 µM | Kd [7]: 33 ± 5 µM | Kd [8]: 0.8 ± 0.05 µM | Kd [9]: 65 ± 2 µM | Kd [10]: 27 ± 3 µM | Kd [11]: 25 ± 6 µM | Kd [12]: 41 ± 11 µM | Kd [13]: 26 ± 4 µM | Kd [14]: 420 ± 30 µM | Kd [15]: 39 ± 2 µM | Kd [16]: 5.1 ± 0.4 µM
